What was measured:
[1] = biological target: human TNFα (human) (UniProt P01375); assay: cell-based or functional assay
[2] = biological target: human non-cleavable membrane bound TNFα on CHO cells (human) (UniProt P01375); assay: cell-based or functional assay
Chain of human non-cleavable membrane bound TNFα on CHO cells (human) (P01375 whole entry): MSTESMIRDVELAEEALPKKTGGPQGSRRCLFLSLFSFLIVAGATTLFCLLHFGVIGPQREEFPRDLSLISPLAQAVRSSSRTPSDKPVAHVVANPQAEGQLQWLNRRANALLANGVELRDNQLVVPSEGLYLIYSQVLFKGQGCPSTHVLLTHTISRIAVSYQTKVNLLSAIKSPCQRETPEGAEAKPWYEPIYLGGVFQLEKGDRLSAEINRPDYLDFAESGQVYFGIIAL

Chain of human TNFα (human) (P01375 77-233 limits assumed): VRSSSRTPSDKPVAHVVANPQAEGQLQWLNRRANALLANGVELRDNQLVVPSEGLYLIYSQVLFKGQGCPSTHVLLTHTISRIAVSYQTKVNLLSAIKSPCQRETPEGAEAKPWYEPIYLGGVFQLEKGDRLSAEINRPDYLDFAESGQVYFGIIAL

Average % inhibition of human TNFα-induced CXCL1 production in vivo (mouse plasma) [1]: 89.4%
Substance: adalimumab with IgG4 isotype (antibody)
IC50, inhibition of TNFα-induced killing of L929 cells (MTT) [1]: 0.243 nM
IC50, inhibition of killing of L929 cells by human non-cleavable membrane bound TNFα CHO cells (MTT) [2]: 0.669 nM
